The supplement of paper PMC7877785
± gives the uncertainty stated by the source.

Experiment: self-splicing fitness, log relative to wild type (ln ratio); higher = more splicing; Tetrahymena group I intron in knt gene, E. coli kanamycin selection, DiMSum; sequences stand for … in CUCUCU…GGAGGGAAAAGUUAUCAGGCAUGCACCUGGUAGCUAGUCUUUAAACCAAUAGAUUGCAUCGGUUUAAAAGGCAAGACCGUCAAAUUGCGGGAAAGGGGUCAACAGCCGUUCAGUACCAAGUCUCAGGGGAAACUUUGAGAUGGCCUUGCAAAGGGUAUGGUAAUAAGCUGACGGACAUGGUCCUAACCACGCAGCCAAGUCCUAAGUCAACAGAUCUUCUGUUGAUAUGGAUGCAGUUCACAGACUAAAUGUCGGUCGGGGAAGAUGUAUUCUUCUCAUAAGAUAUAGUCGGACCUCUCCUUAAUGGGAGCUAGCGGAUGAAGUGAUGCAACACUGGAGCCGCUGGGAACUAAUUUGUAUGCGAAAGUAUAUUGAUUAGUUUUGGAGUACUCGUGGUCG
Procedure, shortened: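 Colonies from six replicate transformations of E. coli BL21(DE3) were pooled and amplicon-sequenced on an Illumina HiSeq 2500. The library placed an intron with all eight P1ex-region nucleotides randomised inside the knt kanamycin-resistance gene on pET-22b(+), and cells grew overnight at 37°C or 30°C on LB agar with or without 25 μg/mL kanamycin (plus 100 μg/mL carbenicillin, 50 μM IPTG, 0.2% rhamnose). Fitness is the DiMSum error-weighted combination of wild-type-normalised replicate fold changes, kanamycin versus none.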

UCUAAGCAAUAUUACGAGUA
self-splicing fitness (ln) (30 °C): -2.23 ± 0.15
self-splicing fitness (ln) (37 °C): -1.02 ± 0.14

GCGGAGCAAUAUUACGGACC
self-splicing fitness (ln) (30 °C): -1.77 ± 0.34

CCUAAGCAAUAUUACGAGUA
self-splicing fitness (ln) (30 °C): -2.5 ± 0.16
self-splicing fitness (ln) (37 °C): -1.98 ± 0.18

CUACAGCAAUAUUACGACAG
self-splicing fitness (ln) (30 °C): -0.672 ± 0.088
self-splicing fitness (ln) (37 °C): 0.096 ± 0.11

GAUGAGCAAUAUUACGGCGU
self-splicing fitness (ln) (30 °C): -0.735 ± 0.11
self-splicing fitness (ln) (37 °C): -0.736 ± 0.13

ACAUAGCAAUAUUACGCUGU
self-splicing fitness (ln) (30 °C): -3.64 ± 0.18
self-splicing fitness (ln) (37 °C): -2.69 ± 0.22

UUGCAGCAAUAUUACGUGGC
self-splicing fitness (ln) (37 °C): -2.93 ± 0.32

CAAGAGCAAUAUUACGUGCG
self-splicing fitness (ln) (30 °C): -1.17 ± 0.074
self-splicing fitness (ln) (37 °C): 0.135 ± 0.09

CGAAAGCAAUAUUACGUGCG
self-splicing fitness (ln) (30 °C): -1.22 ± 0.076
self-splicing fitness (ln) (37 °C): -0.524 ± 0.097

CUCCAGCAAUAUUACGAUAU
self-splicing fitness (ln) (30 °C): -2.46 ± 0.19
self-splicing fitness (ln) (37 °C): -2.95 ± 0.47

CAAGAGCAAUAUUACGCCCG
self-splicing fitness (ln) (30 °C): -1.84 ± 0.2
self-splicing fitness (ln) (37 °C): -1.03 ± 0.22

ACCUAGCAAUAUUACGCCAG
self-splicing fitness (ln) (30 °C): -1.83 ± 0.22

AUCCAGCAAUAUUACGAAUA
self-splicing fitness (ln) (30 °C): -1.44 ± 0.13
self-splicing fitness (ln) (37 °C): -0.957 ± 0.13

AACGAGCAAUAUUACGAAGC
self-splicing fitness (ln) (30 °C): -3.92 ± 0.42
self-splicing fitness (ln) (37 °C): -1.91 ± 0.37

ACGCAGCAAUAUUACGGGGA
self-splicing fitness (ln) (30 °C): -2.28 ± 0.091
self-splicing fitness (ln) (37 °C): -2.14 ± 0.1

GUGGAGCAAUAUUACGGUCA
self-splicing fitness (ln) (30 °C): -2.12 ± 0.17
self-splicing fitness (ln) (37 °C): -1.23 ± 0.13

UAAUAGCAAUAUUACGAGCU
self-splicing fitness (ln) (30 °C): -3.02 ± 0.29
self-splicing fitness (ln) (37 °C): -1.79 ± 0.3

UUAUAGCAAUAUUACGUGCA
self-splicing fitness (ln) (30 °C): -2.37 ± 0.23
self-splicing fitness (ln) (37 °C): -1.07 ± 0.2

CCUAAGCAAUAUUACGCAGG
self-splicing fitness (ln) (30 °C): -4.8 ± 0.29
self-splicing fitness (ln) (37 °C): -2.37 ± 0.25

UGUUAGCAAUAUUACGCUGG
self-splicing fitness (ln) (30 °C): -3.77 ± 0.24
self-splicing fitness (ln) (37 °C): 0.0911 ± 0.15

UCAUAGCAAUAUUACGGUCU
self-splicing fitness (ln) (30 °C): -3.49 ± 0.16
self-splicing fitness (ln) (37 °C): -2.31 ± 0.14

CUUAAGCAAUAUUACGGUGC
self-splicing fitness (ln) (30 °C): -3.83 ± 0.17
self-splicing fitness (ln) (37 °C): -2.25 ± 0.2

ACCUAGCAAUAUUACGCCGU
self-splicing fitness (ln) (30 °C): -0.801 ± 0.083
self-splicing fitness (ln) (37 °C): -0.776 ± 0.11

UUGUAGCAAUAUUACGUCUU
self-splicing fitness (ln) (30 °C): -0.945 ± 0.16
self-splicing fitness (ln) (37 °C): -0.491 ± 0.19

UGUAAGCAAUAUUACGUGCC
self-splicing fitness (ln) (30 °C): -1.46 ± 0.2
self-splicing fitness (ln) (37 °C): -0.0201 ± 0.22

UUGAAGCAAUAUUACGUCAU
self-splicing fitness (ln) (30 °C): -1.41 ± 0.056
self-splicing fitness (ln) (37 °C): -0.306 ± 0.069

GAGUAGCAAUAUUACGUCCC
self-splicing fitness (ln) (30 °C): -0.805 ± 0.21
self-splicing fitness (ln) (37 °C): -0.255 ± 0.23

CCCUAGCAAUAUUACGGGUU
self-splicing fitness (ln) (30 °C): -4.16 ± 0.17
self-splicing fitness (ln) (37 °C): -2.39 ± 0.15

CGCGAGCAAUAUUACGGAUC
self-splicing fitness (ln) (30 °C): -2.62 ± 0.23
self-splicing fitness (ln) (37 °C): -2.28 ± 0.25

UCAAAGCAAUAUUACGGUCU
self-splicing fitness (ln) (30 °C): -2.68 ± 0.16
self-splicing fitness (ln) (37 °C): -1.58 ± 0.14

AGUAAGCAAUAUUACGCAGC
self-splicing fitness (ln) (30 °C): -3.52 ± 0.32
self-splicing fitness (ln) (37 °C): -1.8 ± 0.3

CUCGAGCAAUAUUACGUUUU
self-splicing fitness (ln) (30 °C): -3.2 ± 0.13
self-splicing fitness (ln) (37 °C): -2.1 ± 0.17

UCUAAGCAAUAUUACGGCAA
self-splicing fitness (ln) (30 °C): -1.94 ± 0.34
self-splicing fitness (ln) (37 °C): -1.22 ± 0.21

CCCUAGCAAUAUUACGCACA
self-splicing fitness (ln) (30 °C): -2.5 ± 0.14
self-splicing fitness (ln) (37 °C): -1.97 ± 0.15

AGUUAGCAAUAUUACGUCAA
self-splicing fitness (ln) (30 °C): -3.02 ± 0.26
self-splicing fitness (ln) (37 °C): -0.718 ± 0.13

UGACAGCAAUAUUACGGAGU
self-splicing fitness (ln) (30 °C): -4.14 ± 0.2
self-splicing fitness (ln) (37 °C): -2.79 ± 0.13

GGCAAGCAAUAUUACGGCGC
self-splicing fitness (ln) (30 °C): -0.3 ± 0.082
self-splicing fitness (ln) (37 °C): -0.265 ± 0.12

GAAUAGCAAUAUUACGCCUG
self-splicing fitness (ln) (30 °C): -0.487 ± 0.14
self-splicing fitness (ln) (37 °C): -0.504 ± 0.16

GAUUAGCAAUAUUACGACUC
self-splicing fitness (ln) (30 °C): -0.282 ± 0.13
self-splicing fitness (ln) (37 °C): 0.2 ± 0.16

CGCAAGCAAUAUUACGCAAG
self-splicing fitness (ln) (30 °C): -2.84 ± 0.31
self-splicing fitness (ln) (37 °C): -2.2 ± 0.31

ACGAAGCAAUAUUACGCCAA
self-splicing fitness (ln) (30 °C): -2.55 ± 0.31
self-splicing fitness (ln) (37 °C): -1.98 ± 0.23

GACUAGCAAUAUUACGAAAA
self-splicing fitness (ln) (30 °C): -2.41 ± 0.25
self-splicing fitness (ln) (37 °C): -0.685 ± 0.15

ACAUAGCAAUAUUACGAGUA
self-splicing fitness (ln) (30 °C): -3.54 ± 0.43
self-splicing fitness (ln) (37 °C): -1.8 ± 0.23

ACGCAGCAAUAUUACGCACU
self-splicing fitness (ln) (30 °C): -0.177 ± 0.08
self-splicing fitness (ln) (37 °C): 0.479 ± 0.11

CUUCAGCAAUAUUACGCAUG
self-splicing fitness (ln) (30 °C): -1.48 ± 0.061
self-splicing fitness (ln) (37 °C): 0.119 ± 0.068

ACGUAGCAAUAUUACGGAGC
self-splicing fitness (ln) (30 °C): -3.42 ± 0.22
self-splicing fitness (ln) (37 °C): -2.39 ± 0.26

CAGAAGCAAUAUUACGAAGA
self-splicing fitness (ln) (30 °C): -3.8 ± 0.27
self-splicing fitness (ln) (37 °C): -2.85 ± 0.25

ACGAAGCAAUAUUACGUGUU
self-splicing fitness (ln) (30 °C): -2.94 ± 0.07
self-splicing fitness (ln) (37 °C): -1.81 ± 0.07

UCUAAGCAAUAUUACGUCGC
self-splicing fitness (ln) (30 °C): -2.06 ± 0.23
self-splicing fitness (ln) (37 °C): -1.22 ± 0.25

GUCGAGCAAUAUUACGAUCG
self-splicing fitness (ln) (30 °C): -3.65 ± 0.23
self-splicing fitness (ln) (37 °C): -1.38 ± 0.18

GCAUAGCAAUAUUACGAGUU
self-splicing fitness (ln) (30 °C): -3.15 ± 0.13
self-splicing fitness (ln) (37 °C): -1.33 ± 0.1

AACUAGCAAUAUUACGUGCA
self-splicing fitness (ln) (30 °C): -0.72 ± 0.054
self-splicing fitness (ln) (37 °C): -0.578 ± 0.065

UUCAAGCAAUAUUACGGGUU
self-splicing fitness (ln) (30 °C): -2.38 ± 0.12
self-splicing fitness (ln) (37 °C): -0.76 ± 0.12

UCACAGCAAUAUUACGGAGU
self-splicing fitness (ln) (30 °C): -4.75 ± 0.33
self-splicing fitness (ln) (37 °C): -3.4 ± 0.23

AUAUAGCAAUAUUACGCGGA
self-splicing fitness (ln) (30 °C): -1.65 ± 0.26
self-splicing fitness (ln) (37 °C): -1.67 ± 0.17

AAAGAGCAAUAUUACGCGUU
self-splicing fitness (ln) (30 °C): -2.13 ± 0.14
self-splicing fitness (ln) (37 °C): -1.32 ± 0.14

AGGUAGCAAUAUUACGUCUA
self-splicing fitness (ln) (30 °C): -0.666 ± 0.015
self-splicing fitness (ln) (37 °C): -0.259 ± 0.033

GGAGAGCAAUAUUACGAGGG
self-splicing fitness (ln) (30 °C): -1.99 ± 0.38

UUUAAGCAAUAUUACGCCCA
self-splicing fitness (ln) (30 °C): 0.412 ± 0.32
self-splicing fitness (ln) (37 °C): 0.619 ± 0.37

GGGAAGCAAUAUUACGUACA
self-splicing fitness (ln) (30 °C): -1.02 ± 0.14
self-splicing fitness (ln) (37 °C): -0.334 ± 0.24

GUGCAGCAAUAUUACGCCAC
self-splicing fitness (ln) (37 °C): -1.95 ± 0.47

GACCAGCAAUAUUACGGUAC
self-splicing fitness (ln) (30 °C): -2.05 ± 0.09
self-splicing fitness (ln) (37 °C): -1.75 ± 0.092

GACAAGCAAUAUUACGCCCA
self-splicing fitness (ln) (30 °C): -0.451 ± 0.086
self-splicing fitness (ln) (37 °C): -0.609 ± 0.13

AAAUAGCAAUAUUACGAACG
self-splicing fitness (ln) (30 °C): -1.42 ± 0.14
self-splicing fitness (ln) (37 °C): -0.384 ± 0.16

UAGGAGCAAUAUUACGCACA
self-splicing fitness (ln) (30 °C): -0.278 ± 0.33
self-splicing fitness (ln) (37 °C): -0.212 ± 0.38

CUAAAGCAAUAUUACGGGAU
self-splicing fitness (ln) (30 °C): -1.86 ± 0.087
self-splicing fitness (ln) (37 °C): -0.984 ± 0.12

GAAAAGCAAUAUUACGCUGU
self-splicing fitness (ln) (30 °C): -2.75 ± 0.15
self-splicing fitness (ln) (37 °C): -0.534 ± 0.12

CCCAAGCAAUAUUACGGCGA
self-splicing fitness (ln) (30 °C): -3.88 ± 0.2
self-splicing fitness (ln) (37 °C): -1.69 ± 0.17

CCUCAGCAAUAUUACGAACA
self-splicing fitness (ln) (30 °C): -4.3 ± 0.42
self-splicing fitness (ln) (37 °C): -1.46 ± 0.41

CGUGAGCAAUAUUACGCCAA
self-splicing fitness (ln) (30 °C): -3.41 ± 0.36

CGAGAGCAAUAUUACGUGGG
self-splicing fitness (ln) (30 °C): -2.27 ± 0.35
self-splicing fitness (ln) (37 °C): -1.42 ± 0.28

CUUUAGCAAUAUUACGCCCG
self-splicing fitness (ln) (30 °C): -0.47 ± 0.17
self-splicing fitness (ln) (37 °C): 0.513 ± 0.24

CGGCAGCAAUAUUACGUUAA
self-splicing fitness (ln) (30 °C): -2.44 ± 0.16
self-splicing fitness (ln) (37 °C): -1.1 ± 0.11

CUCAAGCAAUAUUACGACGG
self-splicing fitness (ln) (30 °C): -0.942 ± 0.1
self-splicing fitness (ln) (37 °C): -1.05 ± 0.13

GCUGAGCAAUAUUACGGCAC
self-splicing fitness (ln) (30 °C): -0.439 ± 0.24
self-splicing fitness (ln) (37 °C): -1.28 ± 0.39

GGUAAGCAAUAUUACGUGUU
self-splicing fitness (ln) (30 °C): -1.4 ± 0.075
self-splicing fitness (ln) (37 °C): -0.901 ± 0.083

CAACAGCAAUAUUACGCUUC
self-splicing fitness (ln) (30 °C): -3.83 ± 0.24
self-splicing fitness (ln) (37 °C): -2.18 ± 0.2
